The values below come from paper PMC3877283, “Development of Novel Radiogallium-Labeled Bone Imaging Agents Using Oligo-Aspartic Acid Peptides as Carriers” (PLoS ONE, 2013).

Peptide text beside a SMILES is read from it. * marks the point of attachment. DOTA = O=C(O)CN1CCN(CC(=O)O)CCN(CC(=O)*)CCN(CC(=O)O)CC1

This data set can be described thus: Biodistribution experiments in normal mice. The data set is classed as in vivo, ddY mice. Particulars: mouse, in vivo, iv. As for the experimental part:
Experiments with animals were conducted in strict accordance with the Guidelines for the Care and Use of Laboratory Animals of Kanazawa University. The animal experimental protocols used were approved by the Committee on Animal Experimentation of Kanazawa University (Permit Number: AP-132633). Biodistribution experiments were performed after an intravenous administration of each diluted tracer solution (37 kBq/100 µL) to 6-week-old male ddY mice (27–32 g, Japan SLC, Inc., Hamamatsu, Japan). To investigate the effect of an excess amount of bisphosphonate on biodistribution, alendronate (20 mg/kg) was intravenously administered to mice 1 minute before the intravenous injection of ^67Ga-DOTA-(Asp)14 or ^67Ga-DOTA-Bn-SCN-HBP. Four to six mice each were sacrificed by decapitation at 10, 60, and 180 minutes post-injection. Tissues of interest were removed and weighed. Complete left femurs were isolated as representative bone samples, radioactivity was determined using an auto well gamma counter, and counts were corrected for background radiation and physical decay during counting.
For `O=C(O)C[C@H](NC(=O)[C@H](CC(=O)O)NC(=O)CN1CCN(CC(=O)O)CCN(CC(=O)O)CCN(CC(=O)O)CC1)C(=O)O` [67Ga-DOTA-(Asp)2, metal not drawn] ({DOTA}-Asp-Asp-OH), the “accumulation of radioactivity in the femur (in words)” value (shortened to “accumulation of radioactivity”) is listed as “hardly accumulated in the femur”.

In the case of `O=C(O)C[C@H](NC(=O)[C@H](CC(=O)O)NC(=O)[C@H](CC(=O)O)NC(=O)[C@H](CC(=O)O)NC(=O)[C@H](CC(=O)O)NC(=O)CN1CCN(CC(=O)O)CCN(CC(=O)O)CCN(CC(=O)O)CC1)C(=O)O` [67Ga-DOTA-(Asp)5, metal not drawn] ({DOTA}-DDDDD-OH), the “accumulation of radioactivity” value was “moderate accumulation”.

Consider `O=C(O)C[C@H](NC(=O)[C@H](CC(=O)O)NC(=O)[C@H](CC(=O)O)NC(=O)[C@H](CC(=O)O)NC(=O)[C@H](CC(=O)O)NC(=O)[C@H](CC(=O)O)NC(=O)[C@H](CC(=O)O)NC(=O)[C@H](CC(=O)O)NC(=O)CN1CCN(CC(=O)O)CCN(CC(=O)O)CCN(CC(=O)O)CC1)C(=O)O` [67Ga-DOTA-(Asp)8, metal not drawn] ({DOTA}-DDDDDDDD-OH), for which the “accumulation of radioactivity” value is reported as “higher accumulation”.
